# Data: article PMC3581539, “Biochemical and Mutational Analysis of a Novel Nicotinamidase from Oceanobacillus iheyensis HTE831” (PLoS ONE, 2013)
# T1: nicotinamidase (OiNIC) (Oceanobacillus iheyensis, UniProt Q8ESQ6)
# T1 construct: gene OB0565
# T1 sequence (Q8ESQ6 1-183): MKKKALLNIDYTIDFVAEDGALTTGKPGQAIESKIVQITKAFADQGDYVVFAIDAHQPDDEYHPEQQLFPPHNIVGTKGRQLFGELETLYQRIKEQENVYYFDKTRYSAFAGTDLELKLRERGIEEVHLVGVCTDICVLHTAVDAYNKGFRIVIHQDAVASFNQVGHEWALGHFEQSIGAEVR
# B1: nicotinamidase (OiNIC) (Oceanobacillus iheyensis HTE831) (protein)
# chain: T1 sequence (Q8ESQ6 1-183)
# Key:
# NC(=O)c1cnccn1 = experiment: steady-state kinetics (Km), GDH-coupled spectrophotometric assay; format: biochemical, Oceanobacillus iheyensis
# nicotinamidase (OiNIC) = biological target: T1, nicotinamidase (OiNIC)
# NC(=O)c1cccnc1 = experiment: steady-state kinetics (Km), GDH-coupled spectrophotometric assay; format: biochemical, Oceanobacillus iheyensis; conditions: Zn2+ active site
# [1] = substrate: Cc1cncc(C(N)=O)c1; experiment: as above; format: biochemical, Oceanobacillus iheyensis; conditions: Zn2+
# [2] = substrate: NC(=O)c1cnccn1; experiment: as above; format: biochemical, Oceanobacillus iheyensis; conditions: Zn2+ active site
# [3] = substrate: CCOC(=O)c1cccnc1; experiment: steady-state kinetics (Km), HPLC; format: biochemical, Oceanobacillus iheyensis; conditions: Zn2+
# [4] = substrate: COC(=O)c1cccnc1; experiment: steady-state kinetics (Km), HPLC; format: biochemical, Oceanobacillus iheyensis; conditions: Zn2+
# [5] = substrate: NC(=O)c1cccnc1; experiment: steady-state kinetics (Km), HPLC and GDH-coupled assay; format: biochemical, Oceanobacillus iheyensis; conditions: Zn2+ active site
molecule,measurement,setting,value
nicotinamidase (OiNIC) (Oceanobacillus iheyensis HTE831; F69W),Km,NC(=O)c1cnccn1; Zn2+ active site cavity,500 ± 20 µM
same,kcat,NC(=O)c1cnccn1; Zn2+ active site cavity,3.94 ± 0.1 s⁻¹
same,kcat/Km,NC(=O)c1cnccn1; Zn2+ active site cavity,7900 M⁻¹ s⁻¹
O=Cc1cccnc1 [nicotinaldehyde],Ki,nicotinamidase (OiNIC),3.4 µM
nicotinamidase (OiNIC) (Oceanobacillus iheyensis HTE831; E65H),Km,NC(=O)c1cccnc1,130 ± 10 µM
same,kcat,NC(=O)c1cccnc1,5.63 ± 0.2 s⁻¹
same,kcat/Km,NC(=O)c1cccnc1,42600 M⁻¹ s⁻¹
nicotinamidase (OiNIC) (Oceanobacillus iheyensis HTE831; C133A),Km,NC(=O)c1cnccn1; Zn2+ active site,360 ± 20 µM
same,kcat,NC(=O)c1cnccn1; Zn2+ active site,3.31 ± 0.1 s⁻¹
same,kcat/Km,NC(=O)c1cnccn1; Zn2+ active site,9190 M⁻¹ s⁻¹
B1,Km,[1],680 ± 20 µM
same,kcat,[1],5.1 ± 0.02 s⁻¹
same,kcat/Km,[1],7500 M⁻¹ s⁻¹
same,Km,[2],810 ± 10 µM
same,kcat,[2],2.6 ± 0.1 s⁻¹
same,kcat/Km,[2],3200 M⁻¹ s⁻¹
same,Km,[3],1020 ± 10 µM
same,kcat,[3],0.1 ± 0.01 s⁻¹
same,kcat/Km,[3],100 M⁻¹ s⁻¹
same,Km,[4],1030 ± 10 µM
same,kcat,[4],0.32 ± 0.02 s⁻¹
same,kcat/Km,[4],310 M⁻¹ s⁻¹
same,Km,[5],260 ± 20 µM
same,kcat,[5],11.65 ± 0.1 s⁻¹
same,kcat/Km,[5],43500 M⁻¹ s⁻¹
